Measured values: US11147834B2 (MiZ Company Limited, priority 2018, dated 2021)

What was measured:
[1] = compared with H2; cited from earlier work
[2] = test system: (wet) age-related macular degeneration; experiment: Case of a patient with (wet) age-related macular degeneration: hydrogen aspiration and hydrogen water, Lucentis and laser therapy; assay type: in vivo, human
Experimental: A patient felt itchiness on the left eye in September 2013, took their glasses off, and covered their left eye.
Lucentis (R) was injected in the vitreous body of the patient and the patient received laser therapy after 1 week. After additional 1 month, Lucentis (R) was re-injected.
After 10 months, the injection was discontinued and only a test was continued. Thereafter, the patient visited the hospital once in three months and their pathological conditions were checked by a test.
Then, the patient received the second laser therapy, and Lucentis (R) injection approximately once a month.
The doctor recommended that the patient receive another laser therapy if the result of injection in February was bad.
After that, the patient received Lucentis (R) injection. One week after the injection, detailed fundus examination was conducted to check their pathological conditions.
Then, the patient daily drank 500 ml/morning and 500 ml/night of the water for 1 month.
When the patient received Lucentis (R) injection on Apr. 11, 2018, their pathological conditions were checked. […] However, after one week, the patient was re-examined.

In the case of `[2H][2H]` [D2, deuterium], the superoxide-scavenging action [1] is listed as “stronger superoxide-scavenging action than H2”.

In the case of `[HH]` [hydrogen, molecular hydrogen], the “visual acuity of the eye with age-related macular degeneration” value ([2]; after aspirating hydrogen and drinking hydrogen water, improved from 0.1) is reported as 1.2 and the “choroidal neovascularization (detailed fundus examination)” value ([2]; gaseous hydrogen about 4% by volume aspirated about 2 hours x 3 (7-day interval), February 2018, then Lucentis injection, examined one week after the injection) is reported as “degeneration”.

B1: ranibizumab (antibody, chains of the INN, looked up, V domains shown)
VH: EVQLVESGGGLVQPGGSLRLSCAASGYDFTHYGMNWVRQAPGKGLEWVGWINTYTGEPTYAADFKRRFTFSLDTSKSTAYLQMNSLRAEDTAVYYCAKYPYYYGTSHWYFDVWGQGTLVTVSS
VL: DIQLTQSPSSLSASVGDRVTITCSASQDISNYLNWYQQKPGKAPKVLIYFTSSLHSGVPSRFSGSGSGTDFTLTISSLQPEDFATYYCQQYSTVPWTFGQGTKVEIK
modifications: Fab
notes: an anti-VEGF drug, ranibizumab; Novartis Pharma K. K
With B1 the “effects of laser therapy and Lucentis injection” value ([2]; during three years before initiation of hydrogen gas inhalation) was “no effects”, the therapeutic effect ([2]; first course: intravitreal injection, laser therapy after 1 week, re-injection after additional 1 month) was “therapeutic effect appeared” and the “test result after injection” value ([2]; injection in January 2018) was “very bad”. The treatment outcome ([2]; same treatment repeated two years later after worsening) was “not good”.
